T1: PBF (prolamin-box binding factor) (Zea mays, UniProt O24463 1-328)
T1 sequence: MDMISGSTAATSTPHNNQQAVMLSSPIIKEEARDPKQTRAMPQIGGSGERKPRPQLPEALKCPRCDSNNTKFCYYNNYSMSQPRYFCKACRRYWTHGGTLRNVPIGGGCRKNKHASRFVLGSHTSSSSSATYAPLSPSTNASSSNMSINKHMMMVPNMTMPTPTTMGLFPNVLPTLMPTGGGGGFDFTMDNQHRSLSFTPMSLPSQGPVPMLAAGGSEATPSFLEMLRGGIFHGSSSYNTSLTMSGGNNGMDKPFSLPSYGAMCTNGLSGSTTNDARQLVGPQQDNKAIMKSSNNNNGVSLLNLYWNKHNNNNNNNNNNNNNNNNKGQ

B1: z1A P box (dsDNA)
DNA 1: GGCTATCGTTACACATGTGTAAAGGTATTGCATCACACCATT
DNA 2: AATGGTGTGATGCAATACCTTTACACATGTGTAACGATAGCC
B2: z1C P-box (dsDNA)
DNA 1: TCATGTTAATGTTGTCACATGTGTAAAGGTGAAGAGATCTTGCATGT
DNA 2: ACATGCAAGATCTCTTCACCTTTACACATGTGACAACATTAACATGA
B3: z1A O2-like box (dsDNA)
DNA 1: ATCAAGTTTGTCTTGCTTACGTATAAATTATAACCCAACA
DNA 2: TGTTGGGTTATAATTTATACGTAAGCAAGACAAACTTGAT
B4: z1B-P2 (dsDNA)
DNA 1: CAAAGCCAACTAGATACCACATCATCTCTAGCTTATCTTA
DNA 2: TAAGATAAGCTAGAGATGATGTGGTATCTAGTTGGCTTTG
B5: z1C O2-box (dsDNA)
DNA 1: GAGATCTTGCATGTCATTCCACGTAGATAAAAAGAATGCATATATA
DNA 2: TATATATGCATTCTTTTTATCTACGTGGAATGACATGCAAGATCTC
B6: z1B-P3 (dsDNA)
DNA 1: AACTCAATCTACATAAGCACAAGGTCTAACATGTGTATAA
DNA 2: TTATACACATGTTAGACCTTGTGCTTATGTAGATTGAGTT
B7: z1D-P1 (dsDNA)
DNA 1: TTTTGTGCAAATTGTTTTGTCGACATATAAAGTGTAAGATAAGAAA
DNA 2: TTTCTTATCTTACACTTTATATGTCGACAAAACAATTTGCACAAAA

Target: T1, PBF (prolamin-box binding factor)
Experiment: EMSA

Binding result, binds:
B1
B2

Target: OHP1 (Zea mays, UniProt Q03462 1-405)
Experiment: EMSA

Binding result, binds:
B3
B4
B5
B6
B7
